In US20240116985A1 (published 2024):
Starred links: 1 amine or outer side, 2 acyl side, 3 side chain; linkers in the order of their positions; H or OH if unused. Positions of bridges follow the written chain, without caps; N, C: chain ends. Non-standard residues stand in square brackets, D forms with d. Primed or numbered codes have the meaning given here. *: point of attachment. B5(11) = 2,2-bis(4-pentenyl)glycine = 2-amino-2-(pent-4-en-1-yl)hept-6-enoic acid (stitching residue, bears both staples), C=CCCCC(CCCC=C)(N[*:1])C(=O)[*:2]; PyrS2(3) = (S)-3-amino-1-((pent-4-en-1-yloxy)carbonyl)pyrrolidine-3-carboxylic acid, stapling residue, C=CCCCOC(=O)N1CC[C@@](N[*:1])(C(=O)[*:2])C1; B5(18) = 2,2-bis(4-pentenyl)glycine (2-amino-2-(pent-4-en-1-yl)hept-6-enoic acid), stitching residue, C=CCCCC(CCCC=C)(N[*:1])C(=O)[*:2]; B5(4) = 2,2-bis(4-pentenyl)glycine = 2-amino-2-(pent-4-en-1-yl)hept-6-enoic acid (stitching residue), C=CCCCC(CCCC=C)(N[*:1])C(=O)[*:2]; TfeGA = (S)-2-amino-3-((carboxymethyl)(2,2,2-trifluoroethyl)amino)propanoic acid, O=C([C@H](CN(CC(=O)[*:3])CC(F)(F)F)N[*:1])[*:2]; PyrS2 = (S)-3-amino-1-((pent-4-en-1-yloxy)carbonyl)pyrrolidine-3-carboxylic acid, C=CCCCOC(=O)N1CC[C@@](N[*:1])(C(=O)[*:2])C1; 2COOH4NO2Ph = 2-carboxy-4-nitrophenyl group on the side chain (attached at Dap N or Cys S), O=C(O)c1cc([N+](=O)[O-])ccc1*; B5(12) = 2-amino-2-(pent-4-en-1-yl)hept-6-enoic acid (two olefin side chains), C=CCCCC(CCCC=C)(N[*:1])C(=O)[*:2]; HypEs5 = (2R,4S)-4-(pent-4-enoyloxy)pyrrolidine-2-carboxylic acid, C=CCCC(=O)O[C@H]1C[C@H](C(=O)[*:2])N([*:1])C1; 2COOHF = (S)-2-(2-amino-2-carboxyethyl)benzoic acid, O=C([C@H](Cc1ccccc1C(=O)[*:3])N[*:1])[*:2]; GAbu = (S)-2-amino-4-((carboxymethyl)amino)butanoic acid, O=C([C@H](CCNCC(=O)[*:3])N[*:1])[*:2]; TriAzDap = Dap whose side chain is a 1H-1,2,3-triazol-1-yl bearing the bracketed 4-substituent; B5(3) = 2,2-bis(4-pentenyl)glycine (stitching residue), C=CCCCC(CCCC=C)(N[*:1])C(=O)[*:2]; B5(28) = 2,2-bis(4-pentenyl)glycine, C=CCCCC(CCCC=C)(N[*:1])C(=O)[*:2]; Phe(3-COOH) = N[C@@H](Cc1cccc(C(=O)O)c1)C(=O)O; Phe(2-Cl) = N[C@@H](Cc1ccccc1Cl)C(=O)O; Bta = N[C@@H](Cc1csc2ccccc12)C(=O)O; αAllylPro = C=CC[C@@]1(C(=O)O)CCCN1; NMeH = CN[C@@H](Cc1c[nH]cn1)C(=O)O; tBuAla = CC(C)(C)C[C@H](N)C(=O)O; 3Thi = N[C@@H](Cc1ccsc1)C(=O)O; S8 = C=CCCCCCC[C@](C)(N)C(=O)O; 2Nic = not defined here; Dap = NC[C@H](N)C(=O)O

T1: B-cat-Halo (beta-catenin HaloTag construct expressed in HEK293 cells) (UniProt P35222 1-781)
T1 sequence (looked up): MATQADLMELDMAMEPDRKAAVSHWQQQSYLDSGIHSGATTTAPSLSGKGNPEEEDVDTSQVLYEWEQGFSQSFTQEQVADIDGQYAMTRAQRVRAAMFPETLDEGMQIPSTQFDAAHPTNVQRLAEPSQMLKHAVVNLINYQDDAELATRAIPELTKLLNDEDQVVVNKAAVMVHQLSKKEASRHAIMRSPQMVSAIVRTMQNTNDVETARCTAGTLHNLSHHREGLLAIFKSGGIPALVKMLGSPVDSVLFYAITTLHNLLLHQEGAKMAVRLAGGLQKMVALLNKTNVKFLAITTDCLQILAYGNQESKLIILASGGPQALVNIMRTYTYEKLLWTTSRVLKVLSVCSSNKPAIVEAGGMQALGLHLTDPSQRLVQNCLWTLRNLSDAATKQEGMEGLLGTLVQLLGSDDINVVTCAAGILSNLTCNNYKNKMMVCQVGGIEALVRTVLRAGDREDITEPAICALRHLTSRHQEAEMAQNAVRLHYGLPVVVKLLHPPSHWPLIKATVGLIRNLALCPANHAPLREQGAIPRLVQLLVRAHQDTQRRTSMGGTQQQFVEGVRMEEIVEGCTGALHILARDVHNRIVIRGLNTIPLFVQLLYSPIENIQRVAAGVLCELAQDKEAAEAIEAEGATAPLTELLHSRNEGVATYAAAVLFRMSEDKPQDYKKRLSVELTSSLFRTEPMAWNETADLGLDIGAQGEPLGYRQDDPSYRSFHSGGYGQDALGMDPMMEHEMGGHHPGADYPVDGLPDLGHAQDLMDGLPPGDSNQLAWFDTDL

T2: B-cat-Halo (UniProt P35222 1-781)
T2 sequence (looked up): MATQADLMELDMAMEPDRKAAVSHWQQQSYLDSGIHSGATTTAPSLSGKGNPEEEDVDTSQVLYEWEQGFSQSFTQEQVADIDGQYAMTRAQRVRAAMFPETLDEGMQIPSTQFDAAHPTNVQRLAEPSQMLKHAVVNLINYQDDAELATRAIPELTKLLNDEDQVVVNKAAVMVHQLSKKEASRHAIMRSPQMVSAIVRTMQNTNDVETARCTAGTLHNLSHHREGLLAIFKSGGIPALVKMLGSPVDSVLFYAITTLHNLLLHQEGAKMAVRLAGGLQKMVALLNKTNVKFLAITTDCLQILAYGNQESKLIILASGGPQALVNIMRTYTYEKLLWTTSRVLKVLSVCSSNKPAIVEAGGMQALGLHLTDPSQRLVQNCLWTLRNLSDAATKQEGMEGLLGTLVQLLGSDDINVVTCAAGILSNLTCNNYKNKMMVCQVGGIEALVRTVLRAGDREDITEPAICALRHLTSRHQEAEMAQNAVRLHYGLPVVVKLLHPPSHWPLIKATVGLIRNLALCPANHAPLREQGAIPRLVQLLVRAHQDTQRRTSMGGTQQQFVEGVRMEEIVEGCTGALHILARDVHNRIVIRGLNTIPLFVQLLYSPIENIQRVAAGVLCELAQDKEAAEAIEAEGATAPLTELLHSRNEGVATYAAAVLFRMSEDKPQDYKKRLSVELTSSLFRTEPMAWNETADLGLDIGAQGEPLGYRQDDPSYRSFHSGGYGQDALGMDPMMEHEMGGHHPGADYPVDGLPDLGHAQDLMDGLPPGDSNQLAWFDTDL

T3: full-length beta-Catenin (Uniprot ID P35222) (Homo sapiens (Human), UniProt P35222 2-781)
T3 construct: Also used here for the endogenous beta-catenin of the DLD1 TCF reporter cells; also called bCat; B-Catenin
T3 sequence: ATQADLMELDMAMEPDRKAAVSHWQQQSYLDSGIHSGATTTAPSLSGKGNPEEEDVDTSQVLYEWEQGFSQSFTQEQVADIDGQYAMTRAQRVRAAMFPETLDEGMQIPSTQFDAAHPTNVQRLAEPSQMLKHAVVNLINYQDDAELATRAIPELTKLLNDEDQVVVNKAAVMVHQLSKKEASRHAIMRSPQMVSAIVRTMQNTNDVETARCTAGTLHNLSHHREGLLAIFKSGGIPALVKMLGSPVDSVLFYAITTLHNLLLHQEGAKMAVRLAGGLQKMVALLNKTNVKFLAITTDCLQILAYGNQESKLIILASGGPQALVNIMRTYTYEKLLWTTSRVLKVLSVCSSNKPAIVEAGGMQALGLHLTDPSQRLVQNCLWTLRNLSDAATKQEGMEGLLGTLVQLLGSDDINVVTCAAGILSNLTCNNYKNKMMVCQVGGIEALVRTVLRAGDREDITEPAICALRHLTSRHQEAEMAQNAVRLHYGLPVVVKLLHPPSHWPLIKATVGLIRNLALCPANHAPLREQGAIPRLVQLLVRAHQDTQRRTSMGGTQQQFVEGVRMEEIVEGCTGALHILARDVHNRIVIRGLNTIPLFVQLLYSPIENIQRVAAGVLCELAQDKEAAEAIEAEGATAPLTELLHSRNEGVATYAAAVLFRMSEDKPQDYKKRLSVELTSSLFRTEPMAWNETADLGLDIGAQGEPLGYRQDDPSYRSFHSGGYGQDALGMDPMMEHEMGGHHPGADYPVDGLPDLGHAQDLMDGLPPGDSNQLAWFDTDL


molecular target: T1, B-cat-Halo (beta-catenin HaloTag …); experiment: cell-based or functional assay

| Binder | NanoBRET Abs IC50 [µM] |
| --- | --- |
| Ac-[HypEs5]D[tBuAla][B5(18)]D[Phe(3-COOH)]AAFL[PyrS2(3)][Phe(2-Cl)][Bta]Q-NH2 (staple 1-4, 4-11) [I-1847] | 26.2 |
| Ac-[αAllylPro]N[tBuAla][B5(18)]D[Phe(3-COOH)]AAFL[PyrS2(3)][Phe(2-Cl)][Bta]S-NH2 (staple 1-4, 4-11) [I-1853] | 16.3 |
| Ac-[HypEs5]D[tBuAla][B5(18)]D[TfeGA]AAFT[PyrS2(3)][Phe(2-Cl)][Bta]Q-NH2 (staple 1-4, 4-11) [I-1846] | 29.8 |
| Ac-[αAllylPro]D[tBuAla][B5(18)]D[GAbu]AAFL[PyrS2(3)][3Thi][Bta]Q-NH2 (staple 1-4, 4-11) [I-1841] | > 20 |
| Ac-[αAllylPro]D[tBuAla][B5(18)]D[Phe(3-COOH)]AAFL[PyrS2(3)][Phe(2-Cl)][Bta]-NH2 (staple 1-4, 4-11) [I-1852] | 4.9 |
| Ac-[αAllylPro]D[tBuAla][B5(18)]D[TfeGA]AAF[TriAzDap](CH2NMe2)[PyrS2(3)][3Thi][Bta]Q-NH2 (staple 1-4, 4-11; not fully specified) [I-1861] | 37.3 |
| Ac-[αAllylPro]D[tBuAla][B5(18)]D[Dap](2COOH4NO2Ph)AAFL[PyrS2(3)][3Thi][Bta]Q-NH2 (staple 1-4, 4-11) [I-1843] | 9.5 |
| Ac-[αAllylPro]D[tBuAla][B5(18)]D[Phe(3-COOH)]AAFA[PyrS2(3)][Phe(2-Cl)][Bta]S-NH2 (staple 1-4, 4-11) [I-1849] | 8.8 |
| Ac-[αAllylPro]D[tBuAla][B5(18)]D[GAbu](Ac)AAFL[PyrS2(3)][3Thi][Bta]Q-NH2 (staple 1-4, 4-11; also: double bonds not converted) [I-1840] | 22.3 |
| Ac-[αAllylPro]D[tBuAla][B5(18)]DC(2COOH4NO2Ph)AAFL[PyrS2(3)][3Thi][Bta]Q-NH2 (staple 1-4, 4-11) [I-1848] | > 20 |
| Ac-[αAllylPro]D[tBuAla][B5(18)]D[Phe(3-COOH)]AAFV[PyrS2(3)][Phe(2-Cl)][Bta]S-NH2 (staple 1-4, 4-11) [I-1850] | 3.8 |
| Ac-[αAllylPro]D[tBuAla][B5(18)]D[Phe(3-COOH)]AAFL[PyrS2(3)][Phe(2-Cl)][Bta]A-NH2 (staple 1-4, 4-11) [I-1851] | 3.8 |
| Ac-[αAllylPro]D[tBuAla][B5(18)]D[TfeGA]AAF[TriAzDap](CH2NMe2)[PyrS2(3)][3Thi][Bta]Q-NH2 (staple 1-4, 4-11; not fully specified) [I-1862] | 19.3 |
| Ac-[αAllylPro]D[tBuAla][B5(18)]D[Dap](2Nic)AAFL[PyrS2(3)][3Thi][Bta]Q-NH2 (staple 1-4, 4-11; reading uncertain) [I-1845] | 6.3 |

molecular target: T2, B-cat-Halo; experiment: cell-based or functional assay

| Binder | NanoBRET Abs IC50 [µM] |
| --- | --- |
| Ac-[αAllylPro]D[tBuAla][B5(12)]D[2COOHF]AAFL[PyrS2][3Thi][Bta]Q-NH2 (staple 1-4, 4-11) [I-854] | 3.6 |
| Ac-[αAllylPro]D[tBuAla][B5(3)]D[Phe(3-COOH)]AAFF[PyrS2][3Thi][Bta]Q-NH2 (staple 1-4, 4-11) [I-852] | 2.8 |
| Ac-[αAllylPro]D[tBuAla][B5(12)]DNAAFL[PyrS2][3Thi][Bta]Q-NH2 (staple 1-4, 4-11) [I-856] | 6.8 |

molecular target: T3, full-length beta-Catenin (Uniprot ID …); experiment: fluorescence polarization competition; full-length beta-catenin, competitor 5FAM-TCF4(10-53) probe
Experimental: The plate was incubated protected from light for 60 minutes at 20° C. prior to read. Reads were performed on a CLARIOstar plate reader (BMG Labtech) in duplicate, and data were fitted to a 1:1 binding model with hill slope using an in-house script. All provided concentrations are final concentrations.

| Binder | EC50 [µM] |
| --- | --- |
| Ac-[αAllylPro]DL[B5(4)]DEAAFN[S8]F[Bta][dS]-NH2 (staple 1-4, 4-11, Stapled peptide composition) [I-756] | 0.056 |
| Ac-[αAllylPro]DL[B5(28)]DEAAFN[S8]F[Bta]S-NH2 (staple 1-4, 4-11, Stapled peptide composition) [I-751] | 0.029 |
| Ac-[αAllylPro]DL[B5(4)]DEAAFN[S8]F[Bta]S-NH2 (staple 1-4, 4-11; also: olefin E/Z not assigned, earlier-eluting staple isomer, Stapled peptide composition) [I-750] | 0.043 |
| XDLXDEAAFNXFXT (not fully specified; as printed: Ac-PL3-Asp-Leu-B5-Asp-Glu-Ala-Ala-Phe-Asn-S8-Phe-BztA-Thr-NH2; N-terminal Ac, C-terminal NH2; stapled by olefin metathesis PL3(1)-B5(4) and B5(4)-S8(11), Stapled peptide composition) [I-748] | 0.054 |
| Ac-[αAllylPro]DL[B5(4)]DEAAFN[S8]F[Bta][dT]-NH2 (staple 1-4, 4-11; also: earlier-eluting HPLC peak (staple isomer), Stapled peptide composition) [I-754] | 0.115 |
| Ac-[αAllylPro]DL[B5(4)]DEAAFN[S8]F[Bta][dN]-NH2 (staple 1-4, 4-11; also: earlier-eluting HPLC peak (staple isomer), Stapled peptide composition) [I-757] | 0.064 |
| XDLXDEAAFNXFXT (not fully specified; as printed: Ac-PL3-Asp-Leu-B5-Asp-Glu-Ala-Ala-Phe-Asn-S8-Phe-BztA-Thr-NH2; N-terminal Ac, C-terminal NH2; stapled by olefin metathesis PL3(1)-B5(4) and B5(4)-S8(11), Stapled peptide composition) [I-749] | 0.04 |
| Ac-[αAllylPro]DL[B5(11)]DEAAFN[S8]F[Bta][NMeH]-NH2 (staple 1-4, 4-11; not fully specified, Stapled peptide composition) [I-747] | 2.39 |
| Ac-[αAllylPro]DL[B5(4)]DEAAFN[S8]F[Bta][dT]-NH2 (staple 1-4, 4-11; also: later-eluting HPLC peak (staple isomer), Stapled peptide composition) [I-755] | 0.088 |
| Ac-[αAllylPro]DL[B5(4)]DEAAFN[S8]F[Bta][dN]-NH2 (staple 1-4, 4-11; also: later-eluting HPLC peak (staple isomer), Stapled peptide composition) [I-758] | 0.047 |
